Results on 9 compounds are retold here after patent publication US20080138790A1 (priority 2004, published 2008).

Read-outs that look alike come from different tables or passages of the source.

One data set concerns rat. The settings on record: cited from earlier work.
The nature of data set [1]: Percentage Met-Hb over time of stroma free hemoglobin with/without solvent-detergent. It is filed as physicochemical. The protocol: (§1) The solvent-detergent treatment was performed at a concentration of 1% Tween 80 […] and 0.3% Tri-N-Butyl Phosphate […]. […] All testing was performed at neutral pH in phosphate buffered saline.
(§2) After treatment, the mixture was centrifuged at 8,000 rpm (4,600 g) for 6 minutes at room temperature.

The nature of data set [2]: Total Hb over time of stroma free hemoglobin with/without solvent-detergent. Format: physicochemical. The protocol: as §1, §2
The conditions of data set [3]: in vivo; cited from earlier work.

Regarding `CCC(C)=O` [2-Butanone], the “LD50 (oral-rat)” value in the data set with rat (oral) is 2700 mg/kg.
With `CC(C)O` [2-Propanol], the “LD50 (oral-rat)” value with rat (in vivo, po) was 5000 mg/kg.
Regarding `CC#N` [Acetonitrile], the “LD50 (oral-rat)” value in the data set on rat (oral) is 3800 mg/kg.
On to “SFH: stroma free hemoglobin prepared as in Example 1, 8.6-9.0 g % in PBS”, for which the “Percentage Met-Hb” value in data set [1] (2-6° C., 0 hrs) was found to be 2.15%; in data set [1] (2-6° C., 1 hrs), 2.2%; in data set [1] (2-6° C., 2 hrs), 2.25%; in data set [1] (2-6° C., 3 hrs), 2.15%; in data set [1] (2-6° C., 4 hrs) it was 2.1%; in data set [1] (2-6° C., 5 hrs), 2.25%. The “Percentage Met-Hb” value is on record as 2.2% in data set [1] (21-23° C., 0 hrs); 2.4% in data set [1] (21-23° C., 1 hrs); 2.45% in data set [1] (21-23° C., 2 hrs); 2.45% in data set [1] (21-23° C., 3 hrs); 2.6% in data set [1] (21-23° C., 4 hrs); 2.8% in data set [1] (21-23° C., 5 hrs). Also, the “Total Hb” value in data set [2] (2-6° C., 0 hrs) was determined as 8.6 g %; in data set [2] (2-6° C., 1 hrs), 8.5 g %; in data set [2] (2-6° C., 2 hrs), 8.55 g %; in data set [2] (2-6° C., 3 hrs), 8.65 g %; in data set [2] (2-6° C., 4 hrs), 8.65 g %; in data set [2] (2-6° C., 5 hrs), 8.55 g %. Further, the “Total Hb” value in data set [2] (21-23° C., 0 hrs) is listed as 8.5 g %; in data set [2] (21-23° C., 1 hrs), 8.55 g %; in data set [2] (21-23° C., 2 hrs), 8.55 g %; in data set [2] (21-23° C., 3 hrs), 8.65 g %; in data set [2] (21-23° C., 4 hrs), 8.6 g %; in data set [2] (21-23° C., 5 hrs), 8.55 g %.
Consider `CO` [Methanol], for which the “LD50 (oral-rat)” value in the data set with rat (oral) was 5600 mg/kg.
As for “conjugate of hemoglobin (with a molecular weight of 64,000) and dextran (having a molecular weight of 20,000): hemoglobin conjugated to dextran of molecular weight 20,000, reported by Blumenstein et al.”, the “clearance from the circulation and through the kidneys” value in data set [3] was “cleared slowly from the circulation and negligibly through the kidneys”.
In the case of `CCCO` [1-Propanol], in the data set on rat (in vivo, po), the “LD50 (oral-rat)” value was 1900 mg/kg.
Take `CCOC(C)=O` [Ethyl acetate]: the “LD50 (oral-rat)” value in the data set with rat (in vivo, po) is 11000 mg/kg.
Consider `COCCOC` [Dimethoxy- ethane (glyme), Dimethoxy- ethane], for which the “LD50 (oral-rat)” value in the data set on rat (oral) was 10000 mg/kg.
